# Where a chain is given by its changes, count along the chain named.
# T1: scCD3εγ
# T1 chain 1: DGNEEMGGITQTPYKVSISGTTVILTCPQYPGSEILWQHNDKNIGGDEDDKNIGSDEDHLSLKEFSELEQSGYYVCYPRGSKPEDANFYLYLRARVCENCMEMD
# T1 chain 2: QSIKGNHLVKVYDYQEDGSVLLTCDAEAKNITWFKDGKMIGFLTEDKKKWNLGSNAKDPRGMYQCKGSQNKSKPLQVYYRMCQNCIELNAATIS
# T2: Switchdrug DARPin 17-3
# T2 construct: also called 2-in-1 DARPin17 in Format 3
# T2 chain: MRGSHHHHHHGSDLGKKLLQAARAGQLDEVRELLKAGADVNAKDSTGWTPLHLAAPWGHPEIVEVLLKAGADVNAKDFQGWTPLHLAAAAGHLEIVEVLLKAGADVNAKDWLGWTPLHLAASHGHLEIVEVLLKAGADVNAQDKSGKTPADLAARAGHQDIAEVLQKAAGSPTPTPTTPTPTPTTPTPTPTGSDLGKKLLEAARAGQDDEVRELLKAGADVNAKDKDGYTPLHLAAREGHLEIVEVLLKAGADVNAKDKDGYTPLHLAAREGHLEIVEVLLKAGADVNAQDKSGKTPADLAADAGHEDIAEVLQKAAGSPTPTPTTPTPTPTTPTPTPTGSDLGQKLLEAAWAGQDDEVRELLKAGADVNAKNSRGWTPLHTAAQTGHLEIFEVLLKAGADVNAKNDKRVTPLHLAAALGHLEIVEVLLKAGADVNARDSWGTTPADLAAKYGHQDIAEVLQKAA
# T3: Switchdrug DARPin 15-3
# T3 construct: also called 2-in-1 DARPin15 in Format 3
# T3 chain: T2 chain with G15D, Q20E, L27D, E32I
# T4: Switchdrug DARPin 18-3
# T4 construct: also called 2-in-1 DARPin18 in Format 3
# T4 chain: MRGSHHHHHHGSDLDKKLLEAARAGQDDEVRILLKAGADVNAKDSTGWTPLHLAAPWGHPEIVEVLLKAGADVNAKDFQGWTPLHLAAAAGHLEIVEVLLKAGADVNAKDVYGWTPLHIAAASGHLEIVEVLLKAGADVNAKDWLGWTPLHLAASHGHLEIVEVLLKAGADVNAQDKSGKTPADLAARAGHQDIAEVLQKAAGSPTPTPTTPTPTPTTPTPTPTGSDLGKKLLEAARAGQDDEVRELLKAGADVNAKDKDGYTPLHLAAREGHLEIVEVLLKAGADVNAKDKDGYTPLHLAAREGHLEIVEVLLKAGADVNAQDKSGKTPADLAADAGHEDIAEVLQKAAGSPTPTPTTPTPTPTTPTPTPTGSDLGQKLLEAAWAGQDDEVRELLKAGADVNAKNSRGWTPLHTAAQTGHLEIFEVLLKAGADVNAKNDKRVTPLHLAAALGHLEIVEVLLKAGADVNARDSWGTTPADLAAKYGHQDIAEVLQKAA
# T5: Switchdrug DARPin 17-1
# T5 construct: also called 2-in-1 DARPin17 in Format 1
# T5 chain: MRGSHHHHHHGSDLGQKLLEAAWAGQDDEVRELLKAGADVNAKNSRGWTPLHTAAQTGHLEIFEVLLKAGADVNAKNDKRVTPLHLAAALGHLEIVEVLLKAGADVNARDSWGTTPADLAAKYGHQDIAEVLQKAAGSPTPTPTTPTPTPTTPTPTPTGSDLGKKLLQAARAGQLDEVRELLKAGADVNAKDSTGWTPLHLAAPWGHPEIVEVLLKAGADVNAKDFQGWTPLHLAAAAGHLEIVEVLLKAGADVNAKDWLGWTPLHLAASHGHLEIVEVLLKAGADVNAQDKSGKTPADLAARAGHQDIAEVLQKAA
# T6: CD3-specific binding domain (SEQ ID NO: 3) (biotinylated when used as immobilized SPR ligand (site not stated))
# T6 construct: also called α-CD3 DARPin
# T6 chain: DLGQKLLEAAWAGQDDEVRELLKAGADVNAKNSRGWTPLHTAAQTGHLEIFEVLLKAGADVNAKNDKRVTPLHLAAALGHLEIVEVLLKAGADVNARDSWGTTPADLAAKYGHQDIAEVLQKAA
# T7: 2-in-1 DARPin 21 (SEQ ID NO: 90)
# T7 chain: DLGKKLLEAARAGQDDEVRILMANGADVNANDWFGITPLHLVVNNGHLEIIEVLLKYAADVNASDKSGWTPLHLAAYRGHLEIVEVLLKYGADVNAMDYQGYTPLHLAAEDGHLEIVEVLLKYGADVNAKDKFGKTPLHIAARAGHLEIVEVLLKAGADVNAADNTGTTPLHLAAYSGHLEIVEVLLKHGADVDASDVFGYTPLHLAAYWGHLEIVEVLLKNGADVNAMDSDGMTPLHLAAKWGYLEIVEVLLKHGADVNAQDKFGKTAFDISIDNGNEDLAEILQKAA
# T8: 2-in-1 DARPin 22 (SEQ ID NO: 91)
# T8 chain: T7 chain with K135R, A144N
# B1: Switchdrug DARPin 17-B (designed binder)
# chain: MRGSHHHHHHGSDLGKKLLQAARAGQLDEVRELLKAGADVNAKDSTGWTPLHLAAPWGHPEIVEVLLKAGADVNAKDFQGWTPLHLAAAAGHLEIVEVLLKAGADVNAKDWLGWTPLHLAASHGHLEIVEVLLKAGADVNAQDKSGKTPADLAARAGHQDIAEVLQKAAGSPTPTPTTPTPTPTTPTPTPTGSDLGKKLLQAARAGQLDEVRELLKAGADVNAKDQYGRTPLHLAAIKGHLEIVEVLLKAGADVNAKDSLGYTPLHLAAVEGPLEIVEVLLKAGADVNAKDAYGQTPLHIAAAWGHLEIVEVLLKAVADVNAQDKSGKTPADLAARAGHQDIAEVLQKAAGSPTPTPTTPTPTPTTPTPTPTGSDLGQKLLEAAWAGQDDEVRELLKAGADVNAKNSRGWTPLHTAAQTGHLEIFEVLLKAGADVNAKNDKRVTPLHLAAALGHLEIVEVLLKAGADVNARDSWGTTPADLAAKYGHQDIAEVLQKAA
# notes: also called 2-in-1 DARPin17 in Format B
# B2: VEGF165 (ligand, UniProt P15692-4 27-191, looked up)
# chain: APMAEGGGQNHHEVVKFMDVYQRSYCHPIETLVDIFQEYPDEIEYIFKPSCVPLMRCGGCCNDEGLECVPTEESNITMQIMRIKPHQGQHIGEMSFLQHNKCECRPKKDRARQENPCGPCSERRKHLFVQDPQTCKCSCKNTDSRCKARQLELNERTCRCDKPRR
# modifications: biotinylated in the ELISA of Example 4 (site not stated)
# notes: also called biotinylated VEGF165; soluble VEGF
# B3: α-CD3 DARPin-blocker (SEQ ID NO: 2) (designed binder)
# chain: DLGKKLLQAARAGQLDEVRELLKAGADVNAKDAKGLTPLHLAAYHGHLEIVEVLLKAGADVNAKDVYGWTPLHIAAASGHLEIVEVLLKAGADVNAKDWLGWTPLHLAASHGHLEIVEVLLKAGADVNAQDKSGKTPADLAARAGHQDIAEVLQKAA
# B4: Aminoglycoside phosphotransferase (APH) (enzyme)
# chain: MRGSHHHHHHGSAKMRISPELKKLIEKYRSVKDTEGMSPAKVYKLVGENENLYLKMTDSRYKGTTYDVEREKDMMLWLEGKLPVPKVLHFERHDGWSNLLMSEADGVLCSEEYEDEQSPEKIIELYAECIRLFHSIDISDCPYTNSLDSRLAELDYLLNNDLADVDSENWEEDTPFKDPRELYDFLKTEKPEEELVFSHGDLGDSNIFVKDGKVSGFIDLGRSGRADKWYDIAFCVRSIREDIGEEQYVELFFDLLGIKPDWEKIKYYILLDELF
# Tests used:
# [1] = target: B2; assay: cell-based or functional assay
# [2] = target: T1, scCD3εγ; assay: ELISA, biotinylated scCD3εγ on neutravidin plate, with against without 100 nM VEGF
# Protocol: (§1) The difference in binding of Switchdrug DARPins to scCD3εγ in presence and absence of VEGF was assessed. […] Said Switchdrug DARPins were mixed with a constant concentration of VEGF (100 nM) and tested for binding to scCD3εγ. […] The difference in EC50 of a construct in presence and absence of VEGF can be referred to as the “activation window”.
# (§2) Switchdrug DARPins that were mixed with VEGF were titrated and pre-incubated for 1 day with VEGF in order to establish the thermodynamic equilibrium. These samples were loaded on the ELISA plate, incubated and washed, before the bound Switchdrug DARPins were detected as described above.
# [3] = target: B2; assay: ELISA: plate-bound biotinylated VEGF165, His-tagged construct titrated, no soluble VEGF, anti-His-HRP detection
# Protocol: Then a titration of the Switchdrug DARPins was applied, incubated and washed. Detection of bound his-tagged constructs was done by anti-RGS(his)4 mAb HRP conjugate, and detected by TMB substrate.
# [4] = target: T1, scCD3εγ; assay: ELISA: plate-bound biotinylated scCD3εγ, His-tagged construct titrated in presence of 100 nM soluble VEGF
# Protocol: as §1, §2
# [5] = target: T2, Switchdrug DARPin 17-3; assay: HTRF: 20 nM Switchdrug DARPin with titrated soluble VEGF; read-out is the construct's binding to 1 nM biotinylated scCD3εγ (release of the α-CD3 binder)
# Protocol: (§3) Said Switchdrug DARPins (20 nM final concentration) were mixed with 1 nM (final concentration) scCD3εγ, 1:200 (final concentration) of anti-FLAG-d2 HTRF antibody-FRET acceptor conjugate (Cisbio) and 1:200 (final concentration) of anti-strep-Tb antibody FRET donor conjugate (Cisbio, France). […] The mix was added to a well of a 384-well plate and incubated for 90 minutes.
# [6] = target: T3, Switchdrug DARPin 15-3; assay: as above
# Protocol: as §3
# [7] = target: T4, Switchdrug DARPin 18-3; assay: as above
# Protocol: as §3
# [8] = target: T4, Switchdrug DARPin 18-3; assay: ELISA: 100 nM Switchdrug DARPin 18-3 pre-incubated with titrated soluble VEGF; read-out is the construct bound to plate-bound biotinylated scCD3εγ (release of the α-CD3 binder)
# Protocol: as §2
# [9] = target: T2, Switchdrug DARPin 17-3; assay: ELISA: 10 nM Switchdrug DARPin 17-3 pre-incubated with titrated soluble VEGF; read-out is the construct bound to plate-bound biotinylated scCD3εγ (release of the α-CD3 binder)
# Protocol: as §2
# [10] = target: T5, Switchdrug DARPin 17-1; assay: ELISA: 10 nM Switchdrug DARPin 17-1 pre-incubated with titrated soluble VEGF; read-out is the construct bound to plate-bound biotinylated scCD3εγ (release of the α-CD3 binder)
# Protocol: as §2
# [11] = target: B2; assay: SPR (ProteOn), VEGF165 immobilized, multi-trace
# [12] = target: T6, CD3-specific binding domain (SEQ ID NO: …); assay: SPR (ProteOn), biotinylated CD3-specific binding domain immobilized, multi-trace 50-0.195 nM, 25 C
# [13] = target: T7, 2-in-1 DARPin 21 (SEQ ID NO: 90)
# [14] = target: T8, 2-in-1 DARPin 22 (SEQ ID NO: 91)
binder,measurement,setting,value
B1,"T-cell activation (CD69+ cells of CD8+ T cells, Molm-13 target cells): activation window",[1],75 fold
same,activation window (difference in EC50 in presence and absence of VEGF),[2],~178 fold
same,EC50 (read off the curve),[3],~30 nM
same,EC50 (read off the curve),[4],~2 nM
B2,EC50 (read off the curve),[5],~30 nM
same,EC50 (read off the curve),[6],~30 nM
same,EC50 (read off the curve),[7],~70 nM
same,EC50 (read off the curve),[8],~40 nM
same,EC50 (read off the curve),[9],~7 nM
same,EC50 (read off the curve),[10],~4 nM
B3,binding result,[11],no binding (tested: 50 nM (highest concentration run))
same,Kd,[12],0.11 nM
same,koff,[12],8.92e-05 s⁻¹
same,kon,[12],826000 M⁻¹ s⁻¹
B4,IC50,[13],55 nM
same,IC50,[14],47 nM
